The record followed here is paper doi:10.1101/208041.

First the molecules themselves.
T1: dMpAgo (catalytically inactive MpAgo) (Marinitoga piezophila, UniProt H2J4R4 1-639, D446A)
T1 sequence: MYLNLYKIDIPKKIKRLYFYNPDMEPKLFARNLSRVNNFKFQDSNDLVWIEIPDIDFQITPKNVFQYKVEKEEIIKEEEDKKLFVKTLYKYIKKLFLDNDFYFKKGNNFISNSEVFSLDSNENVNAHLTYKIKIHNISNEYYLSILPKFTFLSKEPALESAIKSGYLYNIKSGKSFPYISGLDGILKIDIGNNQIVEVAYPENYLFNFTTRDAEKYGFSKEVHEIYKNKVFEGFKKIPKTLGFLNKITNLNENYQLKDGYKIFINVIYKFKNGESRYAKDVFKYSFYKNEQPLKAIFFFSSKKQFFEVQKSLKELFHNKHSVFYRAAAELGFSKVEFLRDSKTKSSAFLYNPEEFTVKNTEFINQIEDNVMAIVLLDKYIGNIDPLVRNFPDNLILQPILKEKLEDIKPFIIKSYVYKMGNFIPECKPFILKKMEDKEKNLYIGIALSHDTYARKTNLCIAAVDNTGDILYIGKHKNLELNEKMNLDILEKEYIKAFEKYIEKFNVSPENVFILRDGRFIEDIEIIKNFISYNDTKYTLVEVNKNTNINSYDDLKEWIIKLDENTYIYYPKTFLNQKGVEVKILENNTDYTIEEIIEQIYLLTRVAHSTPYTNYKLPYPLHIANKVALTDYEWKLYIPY

B1: A6 guide / mm2 (mixed)
RNA 1: UGCGGAUGCCAUAUGCAACUU
RNA 2: GGCAGCAUUCAACCAUAUGGCAUCCGAAUACAGCCAAG
modifications: BrdU at guide 1
B2: A6 guide / mm7 (mixed)
RNA 1: UGCGGAUGCCAUAUGCAACUU
RNA 2: GGCAGCAUUCAACCAUAUGGCCUCCGCAUACAGCCAAG
modifications: BrdU at guide 1
B3: A6 guide / mm11 (mixed)
RNA 1: UGCGGAUGCCAUAUGCAACUU
RNA 2: GGCAGCAUUCAACCAUAGGGCAUCCGCAUACAGCCAAG
modifications: BrdU at guide 1
B4: A6 guide / mm5 (mixed)
RNA 1: UGCGGAUGCCAUAUGCAACUU
RNA 2: GGCAGCAUUCAACCAUAUGGCAUACGCAUACAGCCAAG
modifications: BrdU at guide 1
B5: A6 guide / mm10 (mixed)
RNA 1: UGCGGAUGCCAUAUGCAACUU
RNA 2: GGCAGCAUUCAACCAUAUUGCAUCCGCAUACAGCCAAG
modifications: BrdU at guide 1
B6: A6 guide / mm4 (mixed)
RNA 1: UGCGGAUGCCAUAUGCAACUU
RNA 2: GGCAGCAUUCAACCAUAUGGCAUCAGCAUACAGCCAAG
modifications: BrdU at guide 1
B7: A6 guide / mm12 (mixed)
RNA 1: UGCGGAUGCCAUAUGCAACUU
RNA 2: GGCAGCAUUCAACCAUCUGGCAUCCGCAUACAGCCAAG
modifications: BrdU at guide 1
B8: A6 guide / mm8 (mixed)
RNA 1: UGCGGAUGCCAUAUGCAACUU
RNA 2: GGCAGCAUUCAACCAUAUGGAAUCCGCAUACAGCCAAG
modifications: BrdU at guide 1
B9: A6 guide / mm3 (mixed)
RNA 1: UGCGGAUGCCAUAUGCAACUU
RNA 2: GGCAGCAUUCAACCAUAUGGCAUCCUCAUACAGCCAAG
modifications: BrdU at guide 1
B10: rA guide / ON target (mixed)
RNA 1: AAUACAACCUACUACCUCAUU
RNA 2: GGACUAUGAUCUAGAUAUUAAUGAGGUAGUAGGUUGUAUCUCAGGAGGUC
B11: rC guide / ON target (mixed)
RNA 1: CAUACAACCUACUACCUCAUU
RNA 2: GGACUAUGAUCUAGAUAUUAAUGAGGUAGUAGGUUGUAUCUCAGGAGGUC
B12: rU guide / ON target (mixed)
RNA 1: UAUACAACCUACUACCUCAUU
RNA 2: GGACUAUGAUCUAGAUAUUAAUGAGGUAGUAGGUUGUAUCUCAGGAGGUC
B13: dU guide / ON target (mixed)
RNA 1: UAUACAACCUACUACCUCAUU
RNA 2: GGACUAUGAUCUAGAUAUUAAUGAGGUAGUAGGUUGUAUCUCAGGAGGUC
modifications: dU at guide 1
B14: rA guide / OFF target (mixed)
RNA 1: AAUACAACCUACUACCUCAUU
RNA 2: GUUAUGUGUGUGAUUAUAUUUGUUCCAGUUCCUGUGUAAUAGACAUGGAA
B15: rC guide / OFF target (mixed)
RNA 1: CAUACAACCUACUACCUCAUU
RNA 2: GUUAUGUGUGUGAUUAUAUUUGUUCCAGUUCCUGUGUAAUAGACAUGGAA
B16: rU guide / OFF target (mixed)
RNA 1: UAUACAACCUACUACCUCAUU
RNA 2: GUUAUGUGUGUGAUUAUAUUUGUUCCAGUUCCUGUGUAAUAGACAUGGAA
B17: dU guide / OFF target (mixed)
RNA 1: UAUACAACCUACUACCUCAUU
RNA 2: GUUAUGUGUGUGAUUAUAUUUGUUCCAGUUCCUGUGUAAUAGACAUGGAA
modifications: dU at guide 1

For one series, the target named is T1, dMpAgo (catalytically inactive MpAgo). The series is described as follows: filter binding.
In turn, B1 returned a binding signal greater than 5 fold Kd vs complementary.

The molecule B2 gave a binding signal greater than 5 fold Kd vs complementary.

Take B3: the binding signal is greater than 5 fold Kd vs complementary.

B4: the binding signal is greater than 5 fold Kd vs complementary.

In turn, B5 had a binding signal greater than 5 fold Kd vs complementary.

For the molecule B6, the binding signal is greater than 5 fold Kd vs complementary.

With B7, the binding signal is greater than 5 fold Kd vs complementary.

B8 displayed a binding signal greater than 5 fold Kd vs complementary.

The molecule B9 returned a binding signal greater than 5 fold Kd vs complementary.

A further series shares this target. The series is described as follows: filter binding. The source holds these as a separate data set.
Turning to B10, the dissociation constant (Kd) worked out at 0.012 ± 0.002 µM.

Molecule B11 displayed a Kd of 0.0046 ± 0.0005 µM.

B12 yielded a Kd of 0.005 ± 0.0008 µM.

With B13, the affinity, expressed as Kd, was 0.0005 ± 6.7e-05 µM.

With B14, the dissociation constant Kd was 0.112 ± 0.019 µM.

B15 gave a Kd of 0.112 ± 0.018 µM.

B16 showed a Kd of 0.359 ± 0.037 µM.

For B17, the binding result is “no binding”.

By Kd is commonly meant the concentration at which binding is half-saturated.
